Assay results reported in patent publication US11896644B2, “Inhibition of beta-arrestin oligomerization in tauopathy” (UNIVERSITY OF SOUTH FLORIDA, priority 2020, dated 2024).

Assays:
tau in Hela-V5-tau cells = test: Tau immunocytochemistry in Hela-V5-tau cells expressing YFP-β-arrestin2 mutants; assay type: cell-based
Text: FIGS. 11A to 11E show β-arrestin2 oligomerization mutants reduce tau aggregates. FIG. 11A contains representative confocal images of total tau in Hela-V5-tau cells transfected with YFP, YFP-β-arrestin2 ΔIP6C, or YFP-β-arrestin2 ΔIP6N (Scale bar=10 μm). FIG. 11B contains representative confocal images of proximity ligation assay (PLA) in Hela-V5-tau cells transfected with β-arrestin2-flag and β-arrestin2-myc with YFP control, YFP-β-arrestin2 ΔIP6C, or YFP-β-arrestin2 ΔIP6N.
Cells were fixed with 4% paraformaldehyde for 15 min at room temperature and washed with 0.2% triton in TBS and blocked using 3% BSA with 0.1% triton x-100 for 1 hr, incubated with primary antibodies for overnight at 4° C. and fluorescently labeled secondary antibodies for 45 min at room temperature. For immunohistochemistry, mice were perfused with PBS and fixed with 4% paraformaldehyde. […] Images were captured with the Olympus FV10i confocal microscope (Tokyo, Japan), and the immunoreactivities were quantified using the Image J software (National Institutes of Health, Bethesda, MD). Immunoreactivities were quantitated from every 12th serial section through an entire hippocampus. […] Regions of interest were chosen randomly, and investigators were blinded to experimental conditions during image acquisition and quantification. […]

[1] = molecular target: T1, β-arrestin2-flag and β-arrestin2-myc interaction (Rattus norvegicus, UniProt P29067); test: PLA of β-arrestin2-flag and β-arrestin2-myc interaction in presence of mutants; assay type: cell-based; conditions: Hela-V5-tau cells
T1 construct: expressed in transfected cells; host or cells: Hela V5-tau cells
Experimental: The assay was performed using commercially available reagents (Duolink, Sigma-Aldrich, St Louis, MO), with transfection of Hela V5-tau cells with WT β-arrestin2-flag and β-arrestin2-myc, without and with the mutant β-arrestin2 ΔIP6C or β-arrestin2 ΔIP6N constructs. Cells were fixed with 4% paraformaldehyde for 15 min at room temperature and washed with 0.2% triton in TBS. After washing, cells were blocked with 0.2% Triton in 3% Normal goat serum for 1 hour at room temperature. After applying primary antibodies overnight at 4° C., cells were washed and incubated with the PLA probes at 37° C. (1 h), washed with buffer A, incubated with ligation solution at 37° C. (30 min), washed with washing buffer A, incubated with amplification solution at 37° C. […]
When DIV 18 tau P301S cortical primary neurons were transduced with either β-arrestin2 ΔIP6C or ΔIP6N lentivirus, an approximately 50% reduction in tau compared to control was evident (FIGS. 4A,4B), which represents a key finding relevant to both mechanism of action and potential therapeutic strategies. […] To determine whether β-arrestin2 oligomerization status alters tau aggregation itself, filter-trap assays were performed from Hela-V5-tau cells transfected with β-arrestin2 variants, in which tau aggregates from detergent-soluble and-insoluble lysates were captured by cellulose acetate membranes and assessed by immunoblotting.

HA-p62/GFP-p62 complex = molecular target: T2, HA-p62/GFP-p62 complex (Homo sapiens, UniProt Q13501); test: PLA of HA-p62/GFP-p62 complex (p62 self-interaction); assay type: cell-based; conditions: Hela-V5-tau cells
T2 construct: #38277; host or cells: Hela-V5-tau cells
Experimental: Data are shown as box plots or mean±SEM.
Given the effects on p62 autophagy flux, whether β-arrestin2 physically interacts with p62 was tested. […] Given that β-arrestin2 oligomeric mutants, ΔIP6C and ΔIP6N, reduced tau aggregates by slowing tau turnover, next tested was whether β-arrestin2 ΔIP6C and ΔIP6N mutants affect p62 self-association by a proximity ligation assays (PLA) as well as co-IP. […] Recent studies have shown that purified recombinant p62 spontaneously forms globular oligomers (Zaffagnini G, et al. (2018) EMBO J 37(5)). To test whether β-arrestin2 can directly affect p62 oligomerization in vitro, purified recombinant p62, β-arrestin2, and p62 mixed with β-arrestin2 with atomic force microscopy were visualized. Recombinant p62 spontaneously formed visible globular particles between 5-100 nm in diameter (FIG. 5K), whereas only very few small β-arrestin2 particles were visible under identical conditions (FIG. 5K). […] Next tested was whether β-arrestin2 oligomerization is required for bafilomycin A-induced p62 puncta formation. As expected, GFP-p62 puncta were increased upon bafilomycin A treatment in control vector transfected cells (FIGS. 5M,5N).

[2] = molecular target: T3, HA-p62 and GFP-p62 interaction (Homo sapiens, UniProt Q13501); test: Co-IP of HA-p62 and GFP-p62 interaction; assay type: cell-based; conditions: Hela-V5-tau cells
T3 construct: #38277; host or cells: Hela-V5-tau cells
Text: FIGS. 12A to 12E show β-arrestin2 interacts with p62, and β-arrestin2 oligomerization inhibits p62 self-interaction. FIG. 12A contains representative confocal images of mCherry and EGFP in Hela-V5-tau cells transfected with mCherry-GFP-p62 together with control vector, β-arrestin2-flag, or β-arrestin2 ΔIP6N-flag (Scale bar=10 μm). […] The box and whisker plots show all data points, and the box plots show all data points, the median and IQR, and the minimal and maximal values. FIG. 12C contains representative immunoblots of indicated proteins from Hela-V5-tau cells transfected GFP or GFP-β-arrestin2 with/without HA-p62. Note that β-arrestin2 is present in HA immune complexes only in the presence of HA-p62, whereas β-arrestin2 is not detected in control IgG beads. […] Lysates were subjected to IP for HA. […] FIG. 12F show quantification of flag/p62 PLA puncta/cell (N=4 independent experiments, #P<0.0001).
Brain homogenates and cultured cells were lysed with RIPA buffer (50 mM Tris pH 7.4, 150 mM NaCl, 2 mM ethlenediaminetetraacetic acid, 1% NP-40, 0.1% sodium dodecyl sulfate) plus protease and phosphatase inhibitors. Proteins were extracted and centrifuged at 15000 rpm for 15 min at 4° C., and RIPA insoluble fractions were lysed with 5% SDS with 1% β-mercaptoethanol, 50 mM Tris-HCl pH 6.8, 12.5 mM EDTA, 10% glycerol, and 0.02% bromophenol blue. […]

p62 autophagy flux = conditions: primary neurons, rAAV9 mCherry-EGFP-p62
Text: To directly test this hypothesis, the mCherry-EGFP-p62 autophagy flux reporter was used. This reporter takes advantage of the sensitivity of GFP to low pH (which quenches the signal) and the insensitivity of mCherry to low pH. Therefore, colocalized red and green puncta are indicative of non-lysosomal p62 at steady-state.

T1 sequence (P29067 whole entry): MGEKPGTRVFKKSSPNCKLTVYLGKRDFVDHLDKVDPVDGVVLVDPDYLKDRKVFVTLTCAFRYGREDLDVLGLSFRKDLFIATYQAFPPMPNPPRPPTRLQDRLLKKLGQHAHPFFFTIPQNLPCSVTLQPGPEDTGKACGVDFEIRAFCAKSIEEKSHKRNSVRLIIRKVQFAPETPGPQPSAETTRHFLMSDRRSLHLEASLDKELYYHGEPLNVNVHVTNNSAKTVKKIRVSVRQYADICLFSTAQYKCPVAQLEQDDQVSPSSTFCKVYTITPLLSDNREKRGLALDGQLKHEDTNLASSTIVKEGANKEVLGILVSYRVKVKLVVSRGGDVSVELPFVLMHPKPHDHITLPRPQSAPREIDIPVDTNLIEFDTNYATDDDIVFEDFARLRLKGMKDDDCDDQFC

B1: β-arrestin2 ΔIP6N: β-arrestin2 N-terminal domain mutant (K158A, K161A, and R162A), incapable of forming oligomers; dominant negative (protein, UniProt P32121 1-409, looked up, variant K158A K161A R162A)
Beta-arrestin-2: MGEKPGTRVFKKSSPNCKLTVYLGKRDFVDHLDKVDPVDGVVLVDPDYLKDRKVFVTLTCAFRYGREDLDVLGLSFRKDLFIATYQAFPPVPNPPRPPTRLQDRLLRKLGQHAHPFFFTIPQNLPCSVTLQPGPEDTGKACGVDFEIRAFCAKSLEEASHAANSVRLVIRKVQFAPEKPGPQPSAETTRHFLMSDRSLHLEASLDKELYYHGEPLNVNVHVTNNSTKTVKKIKVSVRQYADICLFSTAQYKCPVAQLEQDDQVSPSSTFCKVYTITPLLSDNREKRGLALDGKLKHEDTNLASSTIVKEGANKEVLGILVSYRVKVKLVVSRGGDVSVELPFVLMHPKPHDHIPLPRPQSAAPETDVPVDTNLIEFDTNYATDDDIVFEDFARLRLKGMKDDDYDDQLC
modifications: GFP or YFP tag
notes: dominant negative
tau by immunocytochemistry (tau in Hela-V5-tau cells): significant reductions | β-arrestin2-flag and β-arrestin2-myc interaction (PLA) [1]: significantly reduced | HA-p62/GFP-p62 PLA puncta (p62 self-interaction) (HA-p62/GFP-p62 complex): neither β-arrestin2 ΔIP6C nor β-arrestin2 ΔIP6N reduced HA-p62/GFP-p62 PLA puncta | HA-p62 and GFP-p62 interaction by co-IP [2]: neither β-arrestin2 ΔIP6C nor β-arrestin2 ΔIP6N alone were capable of reducing HA-p62 and GFP-p62 interaction | ratio of mCherry only to total puncta (p62 autophagy flux): significantly increased
